Results: the nanobody polyreactivity screen of Harvey et al. (2022)

Assay: yeast display, Sf9 membrane polyspecificity reagent, FACS + sequencing; frameworks hold sequencing errors
Outline: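 Galactose-induced (36–48 hours) yeast carrying a synthetic nanobody display library were exposed to 10% biotinylated, detergent-solubilized Sf9 membrane reagent at 4 °C for 1 hour. FACS followed streptavidin microbead enrichment, using low and high (top ~1%) gates for expression (anti-HA) and reagent binding (streptavidin). Colony PCR, MiSeq 2 × 250 sequencing and CDR-length filtering followed. Labels for polyreactivity reflect the gate of origin.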

Row | Sequence | polyreactivity (PSR sort gate)
1 | QVQLVESGGGLVQAGGSLRLSCAASGFTFRGYAMGWYRQAPGKERELVAAISKRGGSTYYADSVKGRFTISRDNAKNTVYLQMNSLKPEDTAVYYCNADYYIVGPPYAPTREDYWGQGTQVTVSS | high polyreactivity
2 | QVQLVESGGGLVQAGGSLRLSCAASGSTFFYNAMGWYIQAPGKERELVAAITVTGTSTYYADSVKGRFTISRDNAKNTVYLQMNSLKPEDTGVYYCNTSLKRRRLRFNYWGQGTQVTVSS | low polyreactivity
3 | QVQLVESGGGLVQAGGSLRLSCAASGRIFRYYAMGWYRQAPGKERELVASITRRGGSTYYADSVKGRFTISRDNAKNTVYLQMNSLKPEDTAVYYCAADTYYNLGNYWGQGTQVTVSS | high polyreactivity
4 | QVQLVESGGGLVQAGGSLRLSCAASGIIFSIYAMGWYRQAPGKERELVAVISRSSGSTYYADSVKGRFTISRDNAKNTVYLQMNSLKPEDTAVYYCAADRYSYGSNGYPRFEYYYWGQGTQVTVSS | high polyreactivity
5 | QVQLVESGGGLVQAGGSLRLSFAASGFTFRNYAKGWYRQAPGKERELVATISRSGCSTYYADSVKGRFTISRDNAKNTVYLQMNSLKPEDTAVYYCAAKTILWKYYPYYYVTYDYWGQGTQVTVSS | high polyreactivity
6 | QVQLVESGGGLVQAGGRLSLSSAASGITFRNYAMGWYRQAPGKERQLVAAISRRGGSTYYADSVKGRFTISRDNAKNTVYLQMNSLKPEDTAVYYCAKSPDTAKEYDYWGQGTQVTVSS | high polyreactivity
7 | QVQLVESGGGLVQAGGSLRLSCAASGRIFPWNAMGWYRQAPGKERELVAAISFSAGRTYYADSVKGRFTISRDNAKTTVYLQMTSLKPEDTAVYFCTKASYWGSGFDYWGQGTQVTVSS | low polyreactivity
8 | QVQLVESGGGLVQAGGSLRLSCAASGRTFANYAMGWYRQAPGKERELVAAITSGGRTYYADSVKGRFTISRDNAKNTVYLQMNSLKPEDTAVYYCAADYTYDYQNDYWGQGTQVTVSS | high polyreactivity
9 | QVQLVESGGGLVQAGGSLRLSCAASGSIFASNAMGWYRQAPGKERELVAAITSSGRTKYADSVKGRFTISRDNAKNTVYFQMNSLKPEDTAVYYCAAVYYTYFGRYDYWGQGTQVTVSS | high polyreactivity
10 | QVQLVESGGGLVQAGGSLRLSCAASGRIFPRNAMGWYRQAPGKERELVASITSGGSTNYADSVKGRFTNSRDNAKNTVYLQMNSLKPEDTAVYSCAALYRQVTSPYRYYYWGQGTQVTVSS | high polyreactivity
11 | QVQLVDSGGGLVQAGGSLRLSCAASGRIFSVYAMGWYRQAPGNERELVAAITRVGSTNYADSVKGRFTISRDNAKNTVYLQMNSLKPEDTAVYYCAASKYGSLSGYWGQGTQVTVSS | high polyreactivity
12 | QVQLVESGGGLVLAGGSLRLSCAASGSIFGPYAMGWYRQAPGKERELVAAIRSGGSTNYADSVKGRFTISRDNAKNTVYLQMNSLKPEDNAVYYCAAEYWGYPYDYWGQGTQVTVSS | low polyreactivity
13 | QVQLVESGGGLVQAGGSLRLSCAASGRTLSKNAMGWYRQAPGKERELVATISSVGRTNYADSVKGRFTISRDNAKNTVYLQMNSLKPVDTAVYYCAARRFRGSYYWGLGTQVTVSS | high polyreactivity
14 | QVQLVESGGGLVQAGGSLRLSCAASGSISYYAMGWYRQAPGKERELVAAISSSGGSTYYADSVKGRFTISRDNAKNTVYLQMNSLKPEDTAVYYCAAYGRYGAHTGYGSWGQGTQVTVSS | high polyreactivity
15 | QVHLVESGGGLVQAGGSLRLTCAASGSTFVPYAMGWYRQAPGKERELVAAISTSSGGTYYADSVKGRFTISRDNEKNTVYLQMNSLKPEDTAVYYCAAELVYVPHWLIYDYWGQGTQVTVSS | high polyreactivity
16 | QVQLVESGGGLVQAGGSLRLSCAASGSIFSRNAMGWYRQEPGKEREFVAAISYSSGSTYYADSVNGRFTISRDNAKNTVYLQMNSLKPEDTAVYYCAADTTKLQGVEGDYWGQGTQVTVSS | low polyreactivity
17 | QVQLVESGGGLVHAGGSLRLSCAASGSIFIYYAMGWYRQPPGKERELVAAIDRSGGNTYYADSVKGRFTISRDYAKTSVYLEMNSLKPEDTAVDYCAAQVHRRVQYDYWGQRTQVTVSS | high polyreactivity
18 | QVQLVESGGGLVQAGGSLRLSCAASGNTFLYYGMGWYRQAPGKERELVAAITQSGGTTYYADSVKGRCTISRDNAKNPVYLQMNSLKPEDTAVYYCAATRYYYYWYVYDDRGDYWGQGTQVTVSS | low polyreactivity
19 | QVQLQESGGGLEQAGGSLRLTCAASGNISVTGFMGWYRQEPGKEREIVASIGIGGTTYYADSVKGRFYISRDNAKNTVYLQMNSLKPEDTAVYYCADRYLYYAYSYWCQGTQVTVSS | low polyreactivity
20 | QVQLVESGGGLVQAGGSLRLSCAASGNTFPTNVMGWYRQAPGKERELVAAITRSGGTTYYADSVKGRFTISRDNAKNTVYLQMNSLKPEDTAVYYCAAGPTQGWGRGYWGQGTQVTVSS | high polyreactivity
21 | QVQLVESGGGLVQAGGSLRLSCAASGRIFEYNAMGWYRQAPGKERELVAAITSDGSTNYADSVKGRFTISRDNEKNTVYLQMNSLKPEDTAVYYCNTRYSLYTKYAYYDEHDYWGQGTQVTVSS | low polyreactivity

Row | Sequence | polyreactivity (PSR sort gate)
22 | QFQLVESGGGLVQARGSLRLSCAASGSTFRYYGMGWYRQTPGKERELVAAISSSGGSTYYADSVKGRFTISRDNAKITVYLKMNSLKPEDNAVYYCAAGSRFVSSRLYYWGQGTQVTVSS | high polyreactivity
23 | QVQLVETGGGLVQAGGSLRLSCAASARTFVPYAMGWYRPAPGKERELVADITDGDVSTYADSVNGRFTISRDKAKNTVYLQMNSLKPDDNAVYYCAAQYRRLVTRWPVTFGYWGQGTQVTVSS | low polyreactivity
24 | QVQLVESGGGLVQAGGSLRLSCAASGRTFALYAMGWYRQAPGKERELVATITFIGDSTYYADSVKGRFTISRDNAKNTVYLQMNCLKPVDTAVYYCNATYGPYYPGIVTYIWFDHWGQGSQVTVSS | low polyreactivity
25 | KVQLVESGGGLVQAGGSLRLSCAASGFIFYYYAMGWYRQAPGKERELVAAISTDGGSTYYADSVKGRFTISRDNAKNTVYLQMNSLKPEDTAVYYCNAPYYGWGYWPLEYIRYEYWGQGTQVTVSS | low polyreactivity
26 | QVQLVESGGGLVQAGGRLRLSCAASGRTFANYARGGYRQAPGTERELVAAITSGGRTYYADSVKGRFTISRDNAKNTVYLQMNSLKPEDTPVYYCAAEITYLYDYWGQGTQVTVSS | high polyreactivity
27 | QVQLVESGGGLVQAGGSLRLSCAASGSIFRYNAMGWYRQAPGKERELVASISWSGGSTYYADSVKGRFTISRDNAKNTVYLQMNSLKPEDNAFYYCNVYGKYFRSRYDSWGQGTQVNVSS | high polyreactivity
28 | QVQLVESGGGLVQAGGSLRLSCAASGRIFAYYTMGWYRQAPGKERELVAAITSRGGSTYYADSVKGRFTISRDNAKKTVYLQMNSLKPEDTAVYYCAALRPSNVDYWGQGTQVTVSS | high polyreactivity
29 | QVQLVESGGGLVQPGGSLRLSCAASGSIFSYNTMGWYRQAPGKERELVAAISGRGGSTNYADSVKGRFTISRDNAKNTVYLQMNSLKPEDTAVYYCAKETWVPYRNGFFPLKGDYWGQGTQVTVSS | low polyreactivity
30 | QVQLVESGGGLVQAGGSLRLSCAASGSIFKVNAMGWYRQAPGKERELVAAISGNTDTTYYADSVKGRFTISRDNAKNTVYLQMNSLKPEDTAVYYCAADAYIKYYFRWINMYYWGQGTQVTVSS | high polyreactivity
31 | QVQLVESGGCIVQAGGSLRLSCAASGNIFAYNGKVWYRQAPGKERELVAAIRGSGTRTYYAESVKGRFTISRDNAKNTVYLHMNSLKPEDTAVYYCSARYFGTARTNYGYWGQGTQVTVSS | high polyreactivity
32 | QVQLVESGGGLVQAGGSLRLSCAASGSIFSKNAMGWYRQAPGKERELVAAITWSGGRTYYADSVKGRFTISRDNAKNTVFLQMNSLKPEDTAVYYCAAVSRVRYYLQTYDSWGQGTQVTVSS | high polyreactivity
33 | QVQLVESGGGLVQAGGSLRLSCAASGYIFVIYAMGRYRQAPGKERELVAAITDGGDNTYYADSVKGRFTISRDNAKNTVYLHMNSLKPEDTAVYYCAADVYLPIAAWEGSLEYYYWGQGTQVTVSS | high polyreactivity
34 | QVQLVESGGGLVQAGGSLRLSCAASGFTFHSYAMGWYRQAPGKERELVAAISRGGGSTYYADSVKGRFTISRDNAKYTVYLQMNSLKPEDTAVYYCAARGQGGYRVGYYYWGQGTQVTVSS | high polyreactivity
35 | QVQLVESGGGLVQAGGSLRLSCAASGIISGDYAMGWYRQAPGKERELVARITSGDSTNYADSVKGRFTISRDNAKNTVYLQMNSLKPEDTAVYYCAAKRYVFQNDYWGQGTQVTVSS | low polyreactivity
36 | QVQLVESGGGLVQAGGSLRLSCAASGSTFSGNALGWYRQPPGKERELVAAITSSGGSTDYADSVKGRFTISRDNAKNSVYLQMNSLKPEDTAVYYCNTVFHYFNSGAYNFGYWGQGTQVTVSS | high polyreactivity
37 | QVQLVESGGGLVQAGGSLRLSCSATGFIFYRYAMGWYRQAPGKERELVAAISSSGGSTYYADSVKGRFTISRDNAKTTVSLQMNSLKPEDTAVYYCNKRPQQYRPGYDYWGQGTQVTVSS | high polyreactivity
38 | QVQLVESGGGLVQAGGSLRLSCGAAGSIFAPYALGWYRQAPGKERELVAAISWTGGRTYYADSVKGRFTISRDNAKNTVYLQRNSLKPEDTAVYYCAAAYYGTRPYGYWGQGSQVTVSS | high polyreactivity
39 | QVQLVESGGGLVQAGGSLRLSCAASGNTFGPYDMGWYRQAPGKERELVAGITSGGSTYYADSVKGRFTISRDNAKNTVYLQMNSLKPEDTAVYYCAADYYLWVYWYDYWGQGTQVTVSS | high polyreactivity
40 | QVQLVESGGGLVQAGGSLRLSCAASGFFFEINAMGWYRQAPGKERELVAVITNSGGSTYYADSVKGRFTISRDNAKNTVYLQMNSLKPEDTAVYYCAADAVHYTNDWYDYWGQGTQVTVSS | low polyreactivity
41 | QVQLVESGGGLVQAGGSLRLSCAASGRIFNGNAMGWYRQAPGKEREFVAAITWNGGRTYYADSVKGRFTISRDYAKNTVYLQMNSLKPEDTAVYYCNADPYHRRSSGDYWGQGTQVTVSS | high polyreactivity
